{"source": "patent US20240166768A1", "about": "(YEDA RESEARCH AND DEVELOPMENT, published 2024)", "binders": {"B1": {"name": "T2 (antibody, V domains shown)", "VH": "QVQLVQSGAEVKKPGASVNVSCKASGYNFKAYGVGWVRQAPGQGLEWMGWITPYNGKTNYAQKIQGRVTMTTDTSTTTAYMELRSLQPDDTAMYFCARTPAALASFDYWSQGTLVTVSS", "VL": "DIQMTQSPSTLSASVGDRVTITCRASQSISSWLAWYQQKAGKAPKLLIFDASTLQSGVPSRFSGSGSGTEFSLTISSLQPDDFATYYCQQYYSYSTFGQGTKVEIR"}, "B2": {"name": "T6 (antibody, V domains shown)", "VH": "QVQLQQSGPGLVKPSQTLSLTCAISGDSVSSNSAAWNWIRQSPSRGLEWLGRTYYRSRWYSDYAFSVRSRIIVKADTSRNLFSLQLNSMTPEDTAIYYCARDLGIAAADWFDSWGQGTLVTVSS", "VL": "EIVMTQSPATLSVSPGDRATLSCRASQSVSNRLAWYQQKPGQAPRLLIYDASTRATDIPARFSGSGSGTEFTLTISSLQSEDFAIYFCHQYHNWPGFGPGTKLEIK"}, "B3": {"name": "T1 (antibody, V domains shown)", "VH": "EVQLVESGGGLEQPGRSLRLSCAASGFSFGDNAMTWFRQAPGKGLEWVGIIRAKGYGGTTEYAASVKGRFTISRDDSKSIAFLQMNNVKVEDTGVYYCAKYASGWEVGFDPWGQGTLVTVSS", "VL": "AIQMTQSPSSLSASVGDRVTITCRASQFIRNDLGWYQQKPGRAPKLLIYAASGLHSGVPARFSGNGSATDFTLTITSLQPEDFATYYCLQDYNFPWTFGQGTKVEIK"}, "B4": {"name": "T20 (antibody, V domains shown)", "VH": "QVQLQESGPGLLKPSQTLSLTCTVSGAFLNSGGYYWTWIRQHPGKGLEWIGYIYYSGTTYYNPSLKSRVTISVDTSKNQFSLNVNSVIAADTAVYYCARAPRIPFGEVIGGAAFDVWGQGTTVIVSS", "VL": "EIVLTQSPGTLSLSPGERATLSCRASQSVTSNFVGWYQQKPGQAPRLLIYAASSRPTGIPERFSGSGSGTDFTLTISRLEPEDFAVYYCEQYGSSPRTFGPGTKVEIK"}, "B5": {"name": "T17 (antibody, V domains shown)", "VH": "EVQLVESGGGLVQPGGSLTLSCTASGFTYFGFAMTWVRQPPGKGLEWISSINLLSGTTYYVDSVKGRFTISRDNSKNTVFLQMKGLTAEDTAVYYCAKVGATQDLHYFDFWGQGTLVTVSS", "VL": "DIQMTQSPSTLSASVGDRVTITCRASQSVYRWLAWYQQKPGEAPKLLVYGAFSLQSGVPPRFSGSGYGTEFTLTISSLQPDDFATYYCQQYNSHSTFGQGTKVEVK"}, "B6": {"name": "T25 (antibody, V domains shown)", "VH": "EVQLVESGGGLVKPGGSLRLSCAPSGFIFSNTWMSWVRQAPGKGLEWVGHIKSKADGGTTDYAAPVKGRFTISRDDSRNTLYLQMDSLKTEDTGVYYCTTGWYSTLDYWGQGTLVTVSS", "VL": "QSVLTQPPSASGTPGQRVTISCSGSTSNVGTNYVYWCQQFPGAAPKLLMYRNDRRPSGVPDRFSGSKSGTSASLAISGLRSEDEADYYCAAWDDSLSSWVFGGGTKLTVL"}, "B7": {"name": "T14 (antibody, human IgG1, V domains shown)", "VH": "EVQLVESGGGLVQPGGSLRLSCAVSGFTFNNYWMTWVRQAPGKGLEWVANIKGDGSEKTYVDSVKGRFTVSRDNANNSLHLQMKSLRAEDTAVYYCARVGGGDYYDSSGYYWLDTWGQGTLVTVSS", "VL": "not shown"}, "B8": {"name": "T18 (antibody, V domains shown)", "VH": "EVQLVESGGGLVQPGGSLRLSCAASGFTFSSYWMTWVRQAPGKGLEWVANIKPDGSEKNYVDSVKGRFTISRDNAENSLYLQMNSLRAEDTAVFYCARDLRYCSSTSCSPALDYWGQGTLLTVSS", "VL": "DIQMTQSPSSLSASVGDRVTITCRASQSIASYLNWYQQKPGRAPKLLIYAASTSGVPSRFSGSGSGTDFTLTISSLQPEDFATYYCQQSYTTPRTFGQGTKVEIK"}, "B9": {"name": "T22 (antibody, V domains shown)", "VH": "QVQLVQSGAEVKKPGSSVKVACKASGGTFSRSAISWVRQAPGQGLEWMGGIIRIFNTADYAQKFQGRVTMSADESTSTAYMELSSLRSEDTAVYYCATSSLSDIVVAEGAFVDHYFGMDVWGQGTTVTVSS", "VL": "not shown"}, "B10": {"name": "T13 (antibody, V domains shown)", "VH": "EVQLVESGGGLVQPGGSLRLSCAASGFIFSKHDMYWVRQRPGKGLEWVSRIGDAGDTYYAGSVKGRFTIFRENAKNTLYFQMNRLTDGDTAVYYCGRGMAVAGFPLDVWGRGTRVTVTS", "VL": "EIVMTQSPATLSVSPGERATLSCRASQNIHINLAWYQQKPGQAPRLIIYAASTRAAGIPARFSASGSGTEFTLTISSLQSEDFAVYYCQQFNPWSPWTFGQGTKVEVK", "notes": "The digit 1 is dropped in many places of the text; also called mAb T13"}, "B11": {"name": "T29 (antibody, V domains shown)", "VH": "QLQLQESGPGLVKPSETLSLTCTVSGGSISSSSYYWGWIRQPPGKGLEWIGSLSYTGSTYYNPSLKSRVTISLDTSKNQFSLKLSSVTAADTAVYYCARESGSGGTHTDSWGQGTLVSVSS", "VL": "QSVLTQPPSVSAAPGQKVTISCSGSSSNIGNNYVSWYQQLPGTAPKLLIYDNNKRPSGIPDRFSGSKSGTSATLGISGLQTGDEADYYCGTWDSSLSAWVFGGGTKLTVL"}, "B12": {"name": "T4 (antibody, V domains shown)", "VH": "QVQLVQSGGEVKKPGASAKVSCKTSGFTFTSYGISWVRQAPGQGLEWMGWINTYNGNTKYAQRLQGRVSMTTDTSTNTAYMELRSLRSDDTAVYYCARGQGRYGDYIYNHWGQGTLVIVSS", "VL": "DIQMTQSPSTLSASVGDRVTITCRASQIISSWVAWYQQRPGKAPKLLIFDASILESGVPSRFSGSATGTEFSLTISGLQPDDFATYYCQHYNDFPLSFGGGTKVEIK"}, "B13": {"name": "T19 (antibody, V domains shown)", "VH": "EVQLLESGGGLVQPGGSLRLSCAASGFTFDNYGMSWVRQAPGKGLEWVSVISSGGVGTYYADSVKGRFIISRDNAKNTLYLQMNSLRAEDTAVYYCAKDLLRYESSGYSPWGQGTLVTVSS", "VL": "EIVLTQSPATLSLSPGDRATLSCRASQSVNTYLAWYQHKPGQAPRLLIYDASKRATGIPARFSGSGSGTDFTLTISSLEPEDFAVYYCQQRANRPPLTFGGGTKVEIK"}, "B14": {"name": "T21 (antibody, V domains shown)", "VH": "QVQLQESGPGLVKPSQTLSLTCTVSGGSFSNSNYYWSWIRQPAGKGLEWIGHIYASAITHYNPSLKSRVTISKDTSKNQFSLNLRSVTAADTAVYFCARGFRLAAEAYYHGMDVWGQGTTVTVSS", "VL": "DIQMTQSPSSLSASVGDRVTITCRASQSINNFLNWYQQKPGKAPKLLIYGASSLQSGVPSRFSASGSGTDFSLTISGLIPEDFAIYYCQQSDTTPWTFGQGTKVDIK"}, "B15": {"name": "T28 (antibody, V domains shown)", "VH": "QVQLQESGPGLVKPSETLSLSCAVSGGSIRGYSWSWIRQPPGKGLEWIADMLYTGTTTFNPSLKSRVTISVDTSKNQFSLKLTSVTAADTAVYYCARGPTVSGPIVVDYWGPGTLVTVSS", "VL": "NFMLTQPHSVSESPGKTVTISCTGSSGSIASNYVQWYQQRPGSAPTTLIYEDKQRPSGVPDRFSGSIDSSTNSASLTISGLKTEDEADYYCQSFDSSNRWVFGGGTKVTVL"}, "B16": {"name": "T26 (antibody, V domains shown)", "VH": "QVQLVQSGSEVKKPGASVKVSCKASGYTFTSNGISWVRQAPGQGLEWMGWISAYNGNTNYAQKFQGRVSLTTDTSTSTAYMELRNLTSDDTARYYCARSRGHYGDYLYGYWGQGTLVTVSS", "VL": "QSVLTQPPSVSGAPGQRVTISCTGSSSNIGAGYDVHWYQQLPGTAPKLLIHGNSNRPSGVPDRFSGSKSGTSASLAITGLQAEDEADYYCQSFDSSLSGSVVFGGGTKLTVL"}, "B17": {"name": "T24 (antibody, V domains shown)", "VH": "QLQLQESGSGLVKPSQTLSLTCAVSGGSISSSDYSWSWIRQPPGKGLEWIGYIYHSGNTYYNPSVKSRVTISLDSSKNHFSLTLTSVTAADTAIYYCARDPGGNSGWFDPWGQGALVTVSS", "VL": "SYELTQPTSVSVSPGQTARITCSGDALPSQYAYWYQQKPGQAPILIIYKDNKRPSGIPERFSGSSSGTRVTLTISGVQPEDEADYYCQSADRSGRYVFGTGTRVPVL"}, "B18": {"name": "T5 (antibody, V domains shown)", "VH": "QVQLVESGGGVVQPGRSLRLSCAASGFTFSSHAMHWVRQAPGKGLQWVALISYDGYNKYYAESVQGRFTLSRDNSKNTLYLQMNSLRAEDTAVYYCARDRDSSGYIFDYWGQGTLVTVSS", "VL": "DIQMTQSPSSLSASVGDRVTITCQASQDISNYLNWYQQKPGKAPKVLIYDASNLERGVPSRFSGSGSGTAFTFTISSLQPEDIATYYCQQYDNLPSFGGGTKVEIK"}, "B19": {"name": "T15 (antibody, human IgG1, V domains shown)", "VH": "EVQLVESGGGLVQPGGSLRLSCAASGFTFNNYWMTWVRQAPGKGLEWVANVNQDGNEKNYVDSVRGRFTISRDNAKNSLHLQMKSLISDDTAVYYCARVGGGDYYDSSGYYWFDTWGQGALVTVSS", "VL": "not shown"}}, "key": {"BSA": {"biological_target": "BSA (bovine, UniProt P02769)", "sequence (P02769 25-607 limits assumed)": "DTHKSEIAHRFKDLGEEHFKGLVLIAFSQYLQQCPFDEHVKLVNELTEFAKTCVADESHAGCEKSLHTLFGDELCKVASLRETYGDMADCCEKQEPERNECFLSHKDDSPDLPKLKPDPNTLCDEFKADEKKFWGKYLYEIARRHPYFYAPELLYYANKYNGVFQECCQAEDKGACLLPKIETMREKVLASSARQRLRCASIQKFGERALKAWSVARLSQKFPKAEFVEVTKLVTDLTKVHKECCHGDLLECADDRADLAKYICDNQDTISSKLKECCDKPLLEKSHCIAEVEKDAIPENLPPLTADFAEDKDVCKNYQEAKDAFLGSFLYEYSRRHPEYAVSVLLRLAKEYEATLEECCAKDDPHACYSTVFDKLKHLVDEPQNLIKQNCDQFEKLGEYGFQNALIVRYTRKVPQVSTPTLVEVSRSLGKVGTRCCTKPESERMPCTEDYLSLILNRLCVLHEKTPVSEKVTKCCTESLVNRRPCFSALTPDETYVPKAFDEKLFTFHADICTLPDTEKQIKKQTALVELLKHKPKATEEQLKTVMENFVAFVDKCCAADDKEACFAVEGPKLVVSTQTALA", "assay": "ELISA heatmap, OD630", "description": "ELISA reactions were carried out using flat-bottom MaxiSorp™ 96-well plates (Invitrogen). Antigen coating was performed in PBS at 1001 per well and left overnight at 4° C. For standard dose response ELISA assays, antigens were plated at a concentration of 1 μg/ml. For comparative ELISA assays with multiple antigen targets, antigens were plated at a constant molar concentration of 50 nM. The plates were washed 5 times with washing buffer (1×PBS with 0.05% Tween-20 (Sigma-Aldrich)) and incubated with 1001 blocking buffer (1×PBS with 1% BSA) for 1 h at room temperature. The blocking solution was subsequently replaced by serial dilutions of either mono- or polyclonal antibodies or serum samples for 2.5 h at RT. For standard dose response ELISA assays, antibodies were introduced over a range of dilutions whereas for ELISA screens, antibodies were introduced at 100 nM. Serum samples were assayed at a dilution of 1:100. Plates were washed 5 times with washing buffer and then incubated with anti-human IgG secondary antibody conjugated to horseradish peroxidase (HRP) (Jackson Immuno Research) in PBS at a 1:5,000 dilution. After washing the plates for additional 5 times, the plates were developed using TMB (Thermo Fisher) and absorbance was measured at 630 nm with an ELISA microplate reader (Synergy HTX plate reader, Biotek).\nStrikingly, in 3/4 patients, monoclonal antibodies that bound MMP14 with various degrees of effectiveness and specificity were detected, confirming the analysis using polyclonal patient-derived antibodies. In order to further examine the specificity of the monoclonal antibodies, the binding activity of the antibodies was tested in different dilutions by ELISA."}, "[1]": {"biological_target": "T1, ROI-1 peptide of MMP14 (I-A loop)", "T1 construct": "also called 'ROI-peptide'; 'Peptide (ROI)'", "assay": "peptide validation ELISA: antibody plated, biotinylated peptide titrated, streptavidin-HRP; the concentration is that of the peptide"}}, "data": [{"binder": "B1", "values": [{"measurement": "binding result", "setting": "BSA", "value": "no binding (tested: 100 nM)"}]}, {"binder": "B2", "values": [{"measurement": "binding result", "setting": "BSA", "value": "no binding (tested: 100 nM)"}]}, {"binder": "B3", "values": [{"measurement": "binding result", "setting": "BSA", "value": "no binding (tested: 100 nM)"}]}, {"binder": "B4", "values": [{"measurement": "binding result", "setting": "BSA", "value": "no binding (tested: 100 nM)"}]}, {"binder": "B5", "values": [{"measurement": "binding result", "setting": "BSA", "value": "no binding (tested: 100 nM)"}]}, {"binder": "B6", "values": [{"measurement": "binding result", "setting": "BSA", "value": "no binding (tested: 100 nM)"}]}, {"binder": "B7", "values": [{"measurement": "binding result", "setting": "BSA", "value": "no binding (tested: 100 nM)"}]}, {"binder": "B8", "values": [{"measurement": "binding result", "setting": "BSA", "value": "no binding (tested: 100 nM)"}]}, {"binder": "B9", "values": [{"measurement": "binding result", "setting": "BSA", "value": "no binding (tested: 100 nM)"}]}, {"binder": "B10", "values": [{"measurement": "EC50 (read off the curve)", "setting": "[1]", "value": "~2", "unit": "µg/mL"}]}, {"binder": "B11", "values": [{"measurement": "binding result", "setting": "BSA", "value": "no binding (tested: 100 nM)"}]}, {"binder": "B12", "values": [{"measurement": "binding result", "setting": "BSA", "value": "no binding (tested: 100 nM)"}]}, {"binder": "B13", "values": [{"measurement": "binding result", "setting": "BSA", "value": "no binding (tested: 100 nM)"}]}, {"binder": "B14", "values": [{"measurement": "binding result", "setting": "BSA", "value": "no binding (tested: 100 nM)"}]}, {"binder": "B15", "values": [{"measurement": "binding result", "setting": "BSA", "value": "no binding (tested: 100 nM)"}]}, {"binder": "B16", "values": [{"measurement": "binding result", "setting": "BSA", "value": "no binding (tested: 100 nM)"}]}, {"binder": "B17", "values": [{"measurement": "binding result", "setting": "BSA", "value": "no binding (tested: 100 nM)"}]}, {"binder": "B18", "values": [{"measurement": "binding result", "setting": "BSA", "value": "no binding (tested: 100 nM)"}]}, {"binder": "B19", "values": [{"measurement": "binding result", "setting": "BSA", "value": "no binding (tested: 100 nM)"}]}]}
